Results: PMC9143740

Biological target: Interleukin 13 receptor subunit alpha 2 (IL-13Rα2) (human (endogenous in patient-derived HGG cell lines)) (UniProt Q14627)
UniProt Q14627, sequence (Q14627 27-380): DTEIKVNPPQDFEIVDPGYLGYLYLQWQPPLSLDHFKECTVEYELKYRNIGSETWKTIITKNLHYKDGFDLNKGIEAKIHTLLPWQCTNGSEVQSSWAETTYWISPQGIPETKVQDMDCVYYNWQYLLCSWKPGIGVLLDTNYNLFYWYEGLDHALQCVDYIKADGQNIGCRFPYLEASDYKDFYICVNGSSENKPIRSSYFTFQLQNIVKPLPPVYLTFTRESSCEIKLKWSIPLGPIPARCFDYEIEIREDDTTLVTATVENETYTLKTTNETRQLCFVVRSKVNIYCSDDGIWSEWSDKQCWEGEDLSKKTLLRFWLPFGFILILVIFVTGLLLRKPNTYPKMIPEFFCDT

Work on GB-13 (IL13.E13K-PE4E) yielded an IC50 of cell viability (CellTiter-Glo, 72 h), PED17 cells (DMG, IL-13Rα2-high) of 0.02 ng/mL.
